Assay results reported in patent US20130081152.

Test system: T1, His-tagged recombinant PbGDPS_SSU (expressed in E. coli from pET15b)
T1 sequence: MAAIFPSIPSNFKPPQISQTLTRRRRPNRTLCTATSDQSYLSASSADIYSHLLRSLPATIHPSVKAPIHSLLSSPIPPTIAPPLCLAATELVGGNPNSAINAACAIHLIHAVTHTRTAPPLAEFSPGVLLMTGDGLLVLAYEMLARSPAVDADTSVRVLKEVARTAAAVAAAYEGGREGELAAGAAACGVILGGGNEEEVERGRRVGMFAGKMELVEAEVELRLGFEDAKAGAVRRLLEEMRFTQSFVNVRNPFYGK

For “His-tagged recombinant PbGDPS_LSU (truncated, expressed in E. coli from pBAD202/D-TOPO)”, the prenyltransferase activity was “higher prenyltransferase activity than either PbGDPS_LSU or PbGDPS_SSU alone”.
